Reference: patent US8652796 (Harvard, dated 2014)

Assays:
[1] = biological target: T1, SV40 T antigen (SV40, UniProt P03070 1-708); experiment: recruitment to inclusions, fluorescence microscopy of cells
T1 construct: also called T-Ag; viral (SV40) T antigen

[2] = biological target: T2, T Antigen-HA fusion protein (SV40, UniProt P03070 1-708); experiment: fluorescence microscopy of COS cells expressing T Antigen-HA with GFP-471-721
T2 construct: Construct is not described
T2 sequence (P03070 1-708, tags or fused parts left off): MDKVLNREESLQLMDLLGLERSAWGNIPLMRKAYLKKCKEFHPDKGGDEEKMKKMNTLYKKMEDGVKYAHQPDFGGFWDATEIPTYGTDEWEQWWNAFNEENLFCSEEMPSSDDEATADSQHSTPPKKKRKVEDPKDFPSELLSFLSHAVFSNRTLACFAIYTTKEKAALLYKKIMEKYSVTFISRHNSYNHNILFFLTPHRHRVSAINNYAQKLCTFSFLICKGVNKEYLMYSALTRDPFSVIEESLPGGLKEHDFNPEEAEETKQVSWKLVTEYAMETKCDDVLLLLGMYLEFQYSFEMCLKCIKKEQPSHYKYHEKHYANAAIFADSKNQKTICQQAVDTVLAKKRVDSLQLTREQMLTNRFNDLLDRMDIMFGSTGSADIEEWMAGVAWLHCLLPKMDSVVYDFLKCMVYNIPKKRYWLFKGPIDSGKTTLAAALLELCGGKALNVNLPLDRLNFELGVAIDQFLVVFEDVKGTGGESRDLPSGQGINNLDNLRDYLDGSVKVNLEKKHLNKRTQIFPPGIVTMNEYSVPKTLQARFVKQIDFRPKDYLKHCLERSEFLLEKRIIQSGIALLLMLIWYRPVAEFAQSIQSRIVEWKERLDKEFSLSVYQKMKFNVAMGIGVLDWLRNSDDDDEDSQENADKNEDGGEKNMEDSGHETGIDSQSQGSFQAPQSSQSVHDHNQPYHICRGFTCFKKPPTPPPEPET

B1: GFP/µNS(471-721) (other)
chain: SNDVTDGIKLQLDASRQCHECPVLQQKVVELEKQIIMQKSIQSDPTPVALQPLLSQLRELSSEVTRLQMELSRAQSLNAQLEADVKSAQSCSLDMYLRHHTCINGHAKEDELLDAVVAPDVRREIMEKRSEVRQGWCERISKEAAAKCQTVIDDLTLMNGKQAQEITELRDSAEKYEKQIAELVSTITQNQITYQQELQALVAKNVELDALNQRQAKSLRITPSLLSATPIDSVDDVADLIDFSVPTDEL
notes: Expressed from pEGFP-C1-M3(471-721); GFP at the N terminus of µNS residues 471-721; also called GFP-471-721 fusion protein; EGFP/µNS(471-721); not shown: enhanced Aequorea victoria green fluorescent protein (EGFP) as encoded by the pEGFP-C1 vector (BD Biosciences); the enha
[1]
  binding result: no binding
[2]
  binding result: no binding
